B1: 125 amino acid C-terminal fragment of CAPON: Gal4 activation domain fusion of the last 125 amino acids of CAPON (protein)
chain: SGALPVLCESTTPKPEDLHSPLLGAGLADFAHPVGSPLGRRDCLVKLECFRFLPAEDNQPMAQGEPLLGGLELIKFRESGIASEYESNTDESEERDSWSQEELPRLLNVLQRQELGDSLDDEIAV
B2: GST-CAPON: GST fusion protein consisting of CAPON amino acids 379-503 (C-terminal 125 amino acids) (protein)
chain: B1 chain

Columns and labels:
nNOS [1] = experiment: Yeast two-hybrid interaction with nNOS (2-377); assay type: cell-based, rat
From the text: (§1) FIGS. 1A-1C. Cloning of the CAPON cDNA and distribution of CAPON mRNA. […] Yeast were transformed with the indicated Gal4 activation domain (AD) and Gal4 DNA-binding domain (BD) plasmids and grown on plates […] histidine. A typical filter lift is shown in which b-galactosidase activity was detected by the appearance of a blue precipitate. pAD-CAPON1, comprising the last 125 amino acids of CAPON, activates lacZ transcription in the presence of pBD-nNOS (2-377) but not with plasmids the first three PDZ domains of PSD95 (amino acids 20-364) or the second PDZ domain of PSD93 (amino acids 116-421).
We conducted a yeast two-hybrid screen employing the first 377 amino acids of nNOS, a region which includes the PDZ domain that comprises the first 100 amino acids of nNOS. […]
Two-hybrid screens and the construction of the parent vectors pPC86, containing the GAL4-activation domain, and pPC97, containing the GAL4-DNA binding domain, have been described (Jaffrey and Snyder, 1996). Plasmid pBD-NOS(2-377) was prepared by the insertion of an nNOS PCR product corresponding to amino acids 2-377 of rat nNOS into the Sal I and Bgl II sites of pPC97, resulting in an open reading frame encoding a GAL4 BD-NOS fusion protein (Jaffrey and Snyder, 1996). […]

PSD95 = experiment: Yeast two-hybrid interaction with PSD95 PDZ domains (amino acids 20-364); assay type: cell-based
From the text: as §1
(§2) We conducted a yeast two-hybrid screen employing the first 377 amino acids of nNOS, a region which includes the PDZ domain that comprises the first 100 amino acids of nNOS. […] The CAPON two-hybrid clones share a common carboxyl terminus and are predicted to translate into 125 and 327 amino acid peptides followed by a stop codon. […] Moreover, nNOS fails to interact with another control protein, c-fos. To obtain a full-length CAPON cDNA, we screened a rat brain cDNA library with the larger two-hybrid clone and isolated a 2100 bp cDNA which overlapped with the two-hybrid clone and was used to assemble a final 2820 bp cDNA (see Methods). The conceptual translation of this cDNA produces a 503 amino acid protein (FIG. 1B SEQ ID NO:4). […]

PSD93 = experiment: Yeast two-hybrid interaction with PSD93 second PDZ domain (amino acids 116-421); assay type: cell-based
From the text: as §1, §2

eNOS = experiment: GST-fusion protein binding assay with lysates of transfected HEK293 cells, eNOS; conditions: Western blot
Experimental: (§3) (FIG. 2A) CAPON binds to nNOS, but not eNOS or iNOS. Bacterially expressed GST, GST-PIN, and GST-CAPON were bound to glutathione agarose and then incubated with lysates of HEK293 cells transfected with expression plasmids for the indicated isoforms of NOS. After extensive washing of the resins, bound NOS was detected with isoform specific antibodies. […] Input=10% of starting material applied to each resin.
(§4) To assess the specificity of interactions between CAPON and nNOS, we evaluated the binding of a GST-CAPON fusion protein, consisting of C-terminal 125 amino acids of CAPON, with nNOS, eNOS and inducible NOS (iNOS) (FIG. 2A). Lysates of HEK-293 cells transfected with expression plasmids for each of the three forms of NOS were incubated with GST-CAPON. […] No interactions are evident with the GST control. […]
(§5) The material remaining on the resin was eluted with SDS-PAGE sample buffer and nNOS was detected by immunoblot using antibodies specific to each NOS isoform (Transduction Labs). […]

iNOS = experiment: GST-fusion protein binding assay with lysates of transfected HEK293 cells, iNOS; conditions: Western blot
Experimental: as §3, §4, §5

nNOS [2] = target: nNOS (Rattus norvegicus, UniProt P29476); experiment: GST-fusion protein binding assay with lysates of transfected HEK293 cells, nNOS; set-up: expressed in transfected cells; host or cells: HEK293; conditions: Western blot
Experimental: as §3
(FIG. 4B) The C-terminal 13 amino acids of CAPON are sufficient for binding to nNOS. Various GST-CAPON fusion proteins were incubated with HEK293 lysates containing nNOS. A CAPON fusion protein comprising the last 100 amino acids binds nNOS, as do fusion proteins comprising the last 13 or 20 amino acids of CAPON.
as §4, §5

Sequence of nNOS (Rattus norvegicus, UniProt P29476) (P29476 whole entry, the tested form may be a part): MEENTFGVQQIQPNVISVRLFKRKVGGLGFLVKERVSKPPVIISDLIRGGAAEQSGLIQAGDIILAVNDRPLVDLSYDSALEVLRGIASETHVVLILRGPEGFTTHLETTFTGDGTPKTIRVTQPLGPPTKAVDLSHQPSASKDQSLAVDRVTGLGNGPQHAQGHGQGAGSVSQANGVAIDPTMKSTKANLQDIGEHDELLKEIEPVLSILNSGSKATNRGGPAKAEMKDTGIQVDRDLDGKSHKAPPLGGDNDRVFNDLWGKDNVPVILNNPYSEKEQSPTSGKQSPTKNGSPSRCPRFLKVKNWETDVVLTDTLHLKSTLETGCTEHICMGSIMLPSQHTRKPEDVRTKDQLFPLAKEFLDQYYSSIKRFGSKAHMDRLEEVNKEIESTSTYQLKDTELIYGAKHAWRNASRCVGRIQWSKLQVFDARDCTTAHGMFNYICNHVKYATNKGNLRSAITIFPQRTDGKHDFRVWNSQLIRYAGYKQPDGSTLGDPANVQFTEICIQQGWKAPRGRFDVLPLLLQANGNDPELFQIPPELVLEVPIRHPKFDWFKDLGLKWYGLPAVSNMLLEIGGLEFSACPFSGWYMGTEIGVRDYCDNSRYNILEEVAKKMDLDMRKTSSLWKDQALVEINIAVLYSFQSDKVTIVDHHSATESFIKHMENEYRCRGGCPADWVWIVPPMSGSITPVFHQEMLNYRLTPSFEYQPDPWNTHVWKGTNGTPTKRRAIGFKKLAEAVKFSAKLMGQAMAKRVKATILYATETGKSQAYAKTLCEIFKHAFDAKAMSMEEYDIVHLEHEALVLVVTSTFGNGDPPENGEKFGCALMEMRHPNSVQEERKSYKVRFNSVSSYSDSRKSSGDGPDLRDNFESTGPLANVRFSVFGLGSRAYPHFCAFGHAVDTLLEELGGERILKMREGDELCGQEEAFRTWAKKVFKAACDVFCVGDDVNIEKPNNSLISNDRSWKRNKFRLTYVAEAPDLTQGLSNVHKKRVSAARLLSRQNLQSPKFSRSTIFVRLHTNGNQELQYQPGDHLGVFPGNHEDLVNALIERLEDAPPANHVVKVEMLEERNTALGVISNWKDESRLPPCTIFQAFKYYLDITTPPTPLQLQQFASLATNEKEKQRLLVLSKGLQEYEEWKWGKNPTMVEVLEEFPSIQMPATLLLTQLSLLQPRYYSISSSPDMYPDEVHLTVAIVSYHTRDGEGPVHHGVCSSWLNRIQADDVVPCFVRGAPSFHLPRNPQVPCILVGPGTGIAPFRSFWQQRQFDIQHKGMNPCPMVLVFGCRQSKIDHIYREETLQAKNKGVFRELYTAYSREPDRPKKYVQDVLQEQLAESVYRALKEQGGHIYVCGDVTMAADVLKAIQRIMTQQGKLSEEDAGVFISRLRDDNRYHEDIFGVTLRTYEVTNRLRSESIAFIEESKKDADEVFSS

| Molecule | interaction with nNOS in the two-hybrid system (nNOS [1]) | interaction with PSD95 fragment in the two-hybrid system (PSD95) | interaction with PSD93 fragment in the two-hybrid system (PSD93) | binding of eNOS to immobilized GST-fusion protein (eNOS) | binding of iNOS to immobilized GST-fusion protein (iNOS) | binding of nNOS to immobilized GST-fusion protein (nNOS [2]) |
| --- | --- | --- | --- | --- | --- | --- |
| B1 | specifically interacts | failure of CAPON to interact | failure of CAPON to interact | – | – | – |
| B2 | – | – | – | do not interact | do not interact | interacts strongly |

Reference: patent US6103872A, “CAPON: a protein associated with neuronal nitric oxide synthase” (The Johns Hopkins University, priority 1998, dated 2000)
